Experimental findings from paper PMC314469, “Protein Interaction Networks by Proteome Peptide Scanning” (PLoS Biology, 2004) are described below.

The chains are these.
T1: amphyphisin SH3 (AMPH_HUMAN), P49418
T1 chain: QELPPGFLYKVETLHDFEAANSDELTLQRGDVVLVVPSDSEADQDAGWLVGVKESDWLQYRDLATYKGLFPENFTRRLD

The target of the first experiment is T1, amphyphisin SH3 (AMPH_HUMAN), P49418. As to the kind of experiment: SPOT array.
Molecule SSTPPPRPPVLEEW [Q9UL65 458-472] showed a normalised SPOT signal, Boehringer light units (BLU); mean over the file's lines of this peptide of 29.8.

SSNFPRRPDSGDVT [Q9BYH1 392-405] registered a normalised SPOT signal, Boehringer light units (BLU); mean over the file's lines of this peptide of 29.9.

Consider SFSHLKRPQQGAGN [O43190 163-176], for which the normalised SPOT signal, Boehringer light units (BLU); mean over the file's lines of this peptide is 26.3.

On to SGGRLKRPVNVPFD [P22459 237-250], for which the normalised SPOT signal, Boehringer light units (BLU); mean over the file's lines of this peptide stood at 11.4.

The molecule SGGRIRRPVNVPID [P22001 113-126] showed a normalised SPOT signal, Boehringer light units (BLU); mean over the file's lines of this peptide of 29.

Molecule SFAYPNRPDRPVLK [Q03519 474-487] displayed a normalised SPOT signal, Boehringer light units (BLU); mean over the file's lines of this peptide of 1280.

As to SGEQLPRPTRGRMR [Q9H254 103-116], the normalised SPOT signal, Boehringer light units (BLU); mean over the file's lines of this peptide came to 873.

On to SFSELVRPFKSNKS [O00529 218-231], for which the normalised SPOT signal, Boehringer light units (BLU); mean over the file's lines of this peptide was 32.8.

Regarding AWQQLRRPEASETL [Q9BTX9 18-31], the normalised SPOT signal, Boehringer light units (BLU); mean over the file's lines of this peptide was determined as 29.3.

Molecule SDFSPSKPPSGPGK [Q9BZH6 185-199] displayed a normalised SPOT signal, Boehringer light units (BLU); mean over the file's lines of this peptide of 52.

Molecule SFTALRRPSLRREA [O76050 230-243] registered a normalised SPOT signal, Boehringer light units (BLU); mean over the file's lines of this peptide of 65.1.

The molecule AWARPPKPPTFGEF [Q9Y3X0 319-333] returned a normalised SPOT signal, Boehringer light units (BLU); mean over the file's lines of this peptide of 21.8.

Regarding SGGIPKRPSSPVIS [Q96T17 281-294], the normalised SPOT signal, Boehringer light units (BLU); mean over the file's lines of this peptide was 46.1.

Consider SFLRLRRPWNWIAH [Q9H1Y5 130-143], for which the normalised SPOT signal, Boehringer light units (BLU); mean over the file's lines of this peptide was 120.

SGGRLRRPVNVSLD [P22460 181-194]: the normalised SPOT signal, Boehringer light units (BLU); mean over the file's lines of this peptide was 56.9.

Turning to SFLSLRRPWNWIAH [O15229 449-462], the normalised SPOT signal, Boehringer light units (BLU); mean over the file's lines of this peptide stood at 57.7.

As to SDSKPKRPQPSREI [Q96JP2 1105-1118], the normalised SPOT signal, Boehringer light units (BLU); mean over the file's lines of this peptide amounted to 13.6.

With SDREPTRPPRPILQ [Q9NQ53 86-99], the normalised SPOT signal, Boehringer light units (BLU); mean over the file's lines of this peptide stood at 3890.

For SSKNIYRPDKFLQS [P28907 274-287], the normalised SPOT signal, Boehringer light units (BLU); mean over the file's lines of this peptide was determined as 34.

SGGKIRRPANVPID [Q16322 147-160] returned a normalised SPOT signal, Boehringer light units (BLU); mean over the file's lines of this peptide of 0.

The molecule SEDDFYRPSREQPL [Q9Y4G2 445-458] returned a normalised SPOT signal, Boehringer light units (BLU); mean over the file's lines of this peptide of 142.

As for SGERLPRPDKGKMR [Q08043 87-100], the normalised SPOT signal, Boehringer light units (BLU); mean over the file's lines of this peptide worked out at 91.2.

AWVSPRRPDEEQRP [Q96MG2 305-318] came in with a normalised SPOT signal, Boehringer light units (BLU); mean over the file's lines of this peptide of 57.9.

Molecule SEAAPRRPEATAAP [Q9H677 423-436] gave a normalised SPOT signal, Boehringer light units (BLU); mean over the file's lines of this peptide of 26.1.

SSQRPGRPARVALP [P98161 2194-2207] had a normalised SPOT signal, Boehringer light units (BLU); mean over the file's lines of this peptide of 2220.

SSRAPPRPAKTTDP [Q9P2Q1 364-377] came in with a normalised SPOT signal, Boehringer light units (BLU); mean over the file's lines of this peptide of 378.

In turn, SFQSPTRPPLASPT [Q9UGJ0 207-221] had a normalised SPOT signal, Boehringer light units (BLU); mean over the file's lines of this peptide of 27.7.

Turning to SFLTLTRPDRALVR [Q9H6A9 133-146], the normalised SPOT signal, Boehringer light units (BLU); mean over the file's lines of this peptide was determined as 894.

For SGDQLKRPFGAFRS [Q9Y6H5 853-866], the normalised SPOT signal, Boehringer light units (BLU); mean over the file's lines of this peptide stood at 20.6.

For SEGSLTRPKKAIPP [O14810 90-103], the normalised SPOT signal, Boehringer light units (BLU); mean over the file's lines of this peptide is 0.

SAGLPGKPPAIQAS [O95428 427-441] showed a normalised SPOT signal, Boehringer light units (BLU); mean over the file's lines of this peptide of 42.4.

For the molecule SEPHIKRPMNAFMV [Q9BXQ5 597-610], the normalised SPOT signal, Boehringer light units (BLU); mean over the file's lines of this peptide turned out to be 32.

As to SGAPPTKPPTTPVG [P54259 267-281], the normalised SPOT signal, Boehringer light units (BLU); mean over the file's lines of this peptide is 41.3.

The molecule SESRIRRPMNAFMV [Q9BT81 41-54] displayed a normalised SPOT signal, Boehringer light units (BLU); mean over the file's lines of this peptide of 0.

SGGRLRRPVNVPLD [Q09470 98-111] had a normalised SPOT signal, Boehringer light units (BLU); mean over the file's lines of this peptide of 33.6.

On to SGAEIKRPGASVKV [O95978 26-39], for which the normalised SPOT signal, Boehringer light units (BLU); mean over the file's lines of this peptide came to 34.4.

On to SEDPLKRPVVYVKG [Q9ULT6 127-140], for which the normalised SPOT signal, Boehringer light units (BLU); mean over the file's lines of this peptide was found to be 21.3.

In turn, SGGRLRRPAHVPLD [Q9BYS4 74-87] returned a normalised SPOT signal, Boehringer light units (BLU); mean over the file's lines of this peptide of 20.8.

The target in the next experiment is endophilin SH3 (SH3G2_HUMAN), Q99962. The experiment can be described thus: SPOT array.
SSTPPPRPPVLEEW [Q9UL65 458-472]: the normalised SPOT signal, Boehringer light units (BLU); mean over the file's lines of this peptide turned out to be 110.

Molecule SSNFPRRPDSGDVT [Q9BYH1 392-405] yielded a normalised SPOT signal, Boehringer light units (BLU); mean over the file's lines of this peptide of 67.7.

SFSHLKRPQQGAGN [O43190 163-176] had a normalised SPOT signal, Boehringer light units (BLU); mean over the file's lines of this peptide of 32.4.

The molecule SGGRLKRPVNVPFD [P22459 237-250] yielded a normalised SPOT signal, Boehringer light units (BLU); mean over the file's lines of this peptide of 37.8.

Regarding SGGRIRRPVNVPID [P22001 113-126], the normalised SPOT signal, Boehringer light units (BLU); mean over the file's lines of this peptide was 104.

SFAYPNRPDRPVLK [Q03519 474-487] gave a normalised SPOT signal, Boehringer light units (BLU); mean over the file's lines of this peptide of 245.

The molecule SGEQLPRPTRGRMR [Q9H254 103-116] had a normalised SPOT signal, Boehringer light units (BLU); mean over the file's lines of this peptide of 210.

Molecule SFSELVRPFKSNKS [O00529 218-231] returned a normalised SPOT signal, Boehringer light units (BLU); mean over the file's lines of this peptide of 106.

In the case of AWQQLRRPEASETL [Q9BTX9 18-31], the normalised SPOT signal, Boehringer light units (BLU); mean over the file's lines of this peptide came to 15.9.

In turn, SDFSPSKPPSGPGK [Q9BZH6 185-199] registered a normalised SPOT signal, Boehringer light units (BLU); mean over the file's lines of this peptide of 63.8.

As for SFTALRRPSLRREA [O76050 230-243], the normalised SPOT signal, Boehringer light units (BLU); mean over the file's lines of this peptide came to 27.6.

On to AWARPPKPPTFGEF [Q9Y3X0 319-333], for which the normalised SPOT signal, Boehringer light units (BLU); mean over the file's lines of this peptide was found to be 716.

Molecule SGGIPKRPSSPVIS [Q96T17 281-294] returned a normalised SPOT signal, Boehringer light units (BLU); mean over the file's lines of this peptide of 1080.

For SFLRLRRPWNWIAH [Q9H1Y5 130-143], the normalised SPOT signal, Boehringer light units (BLU); mean over the file's lines of this peptide worked out at 351.

As to SGGRLRRPVNVSLD [P22460 181-194], the normalised SPOT signal, Boehringer light units (BLU); mean over the file's lines of this peptide is 54.6.

With SFLSLRRPWNWIAH [O15229 449-462], the normalised SPOT signal, Boehringer light units (BLU); mean over the file's lines of this peptide was determined as 500.

With SDSKPKRPQPSREI [Q96JP2 1105-1118], the normalised SPOT signal, Boehringer light units (BLU); mean over the file's lines of this peptide is 44.6.

With SDREPTRPPRPILQ [Q9NQ53 86-99], the normalised SPOT signal, Boehringer light units (BLU); mean over the file's lines of this peptide was 52.9.

The molecule SSKNIYRPDKFLQS [P28907 274-287] came in with a normalised SPOT signal, Boehringer light units (BLU); mean over the file's lines of this peptide of 63.6.

In the case of SGGKIRRPANVPID [Q16322 147-160], the normalised SPOT signal, Boehringer light units (BLU); mean over the file's lines of this peptide is 94.6.

With SEDDFYRPSREQPL [Q9Y4G2 445-458], the normalised SPOT signal, Boehringer light units (BLU); mean over the file's lines of this peptide stood at 92.5.

The molecule SGERLPRPDKGKMR [Q08043 87-100] showed a normalised SPOT signal, Boehringer light units (BLU); mean over the file's lines of this peptide of 47.7.

For the molecule AWVSPRRPDEEQRP [Q96MG2 305-318], the normalised SPOT signal, Boehringer light units (BLU); mean over the file's lines of this peptide is 398.

SEAAPRRPEATAAP [Q9H677 423-436] came in with a normalised SPOT signal, Boehringer light units (BLU); mean over the file's lines of this peptide of 16.1.

SSQRPGRPARVALP [P98161 2194-2207] showed a normalised SPOT signal, Boehringer light units (BLU); mean over the file's lines of this peptide of 13500.

For the molecule SSRAPPRPAKTTDP [Q9P2Q1 364-377], the normalised SPOT signal, Boehringer light units (BLU); mean over the file's lines of this peptide was determined as 279.

Regarding SFQSPTRPPLASPT [Q9UGJ0 207-221], the normalised SPOT signal, Boehringer light units (BLU); mean over the file's lines of this peptide is 161.

With SFLTLTRPDRALVR [Q9H6A9 133-146], the normalised SPOT signal, Boehringer light units (BLU); mean over the file's lines of this peptide came out at 211.

In the case of SGDQLKRPFGAFRS [Q9Y6H5 853-866], the normalised SPOT signal, Boehringer light units (BLU); mean over the file's lines of this peptide turned out to be 75.5.

The molecule SEGSLTRPKKAIPP [O14810 90-103] gave a normalised SPOT signal, Boehringer light units (BLU); mean over the file's lines of this peptide of 68.4.

SAGLPGKPPAIQAS [O95428 427-441] showed a normalised SPOT signal, Boehringer light units (BLU); mean over the file's lines of this peptide of 50.3.

SEPHIKRPMNAFMV [Q9BXQ5 597-610]: the normalised SPOT signal, Boehringer light units (BLU); mean over the file's lines of this peptide came to 63.7.

Take SGAPPTKPPTTPVG [P54259 267-281]: the normalised SPOT signal, Boehringer light units (BLU); mean over the file's lines of this peptide was determined as 65.4.

Molecule SESRIRRPMNAFMV [Q9BT81 41-54] displayed a normalised SPOT signal, Boehringer light units (BLU); mean over the file's lines of this peptide of 32.9.

In turn, SGGRLRRPVNVPLD [Q09470 98-111] had a normalised SPOT signal, Boehringer light units (BLU); mean over the file's lines of this peptide of 44.

For the molecule SGAEIKRPGASVKV [O95978 26-39], the normalised SPOT signal, Boehringer light units (BLU); mean over the file's lines of this peptide was 32.7.

SEDPLKRPVVYVKG [Q9ULT6 127-140]: the normalised SPOT signal, Boehringer light units (BLU); mean over the file's lines of this peptide came to 58.8.

Molecule SGGRLRRPAHVPLD [Q9BYS4 74-87] registered a normalised SPOT signal, Boehringer light units (BLU); mean over the file's lines of this peptide of 24.7.
